B1: LcBADH2 (Leymus chinensis) (protein)
chain: MASPAIPQRQLFIDGEWRAPALGRRLPVINPTTEASIGEIPSGTSEDVDAAVAAARAALKRNRGRDWSRAPGAVRAKYLRAIAAKMIERKADLARLEALDCGKPLDEAAWDMDDVAGCFEFFAGHAEALDKRQNAAVSLPENFKCHLKKEPIGVVSLITPWNYPLLMATWKVAPALAAGCTAVLKPSELASVTCLELADVCKEVGLPPGVLNVVTGLGPEAGAPLSSHPDVDKVAFTGSYATGQKIMVAAAPTVKAVTLELGGKSPIVVFDDVDIDKAVEWTLFGCFWTNGQICSATSRLLIHKNIAKEFVDRMVAWSKNIKVSDPLEEGCRLGPVVSEGQYEKIKKFISNAKSEGATILTGGVRPKHMEKGFFIEPTIITDINTSMEIWREEVFGPVLCVKEFSTEEEAIELANDTHYGLAGAVISGDRERCQRLAEEIDAGCIWVNCSQPCFCQAPWGGNKRSGFGRELGEGGIDNYLSIKQVTEYTSDAPWGWYKAPAN
notes: approx 54 kDa
B2: LcBADH1 (Leymus chinensis) (protein)
chain: MAAPPAIPRRGLFIGGGWREPTLGRRIPVINPATEDTIGDIPAATVEDVELAVAAARSAFLLDGGSRWSRASGATRAKYLNAIAAKIKEKISYLALLETVDSGKPKDEAVADMDDVAACFEYYAGLAEALDGKQHAPISLPMEEFKTYVLKEPIGVVGLITPWNYPLLMATWKVAPALAAGCTAVLKPSELASLTCLELGAICEEIGLPSGVLNIITGLGADAGAPIASHPHVDKIAFTGSTATSKTIMTAAAQMVKPVSLELGGKSPLVIFDDVADIDKAVEWAMFGCFFNGGQVCSATSRLLLREKIAERFLDRLVEWAKNIKISDPLEEGCRLGSVVSKGQYEKIKKFISTARSEGATILHGGDRPKHLGKGFFIEPTIITDVSTSMQIWREEVFGPVICVKVFKTESEAIELANDTHYGLAGGVISDDLERCERIAKVIHSGIVWINCSQPTLVQAPWGGNKQSGFGRELGEWGLENYLSVKQVTRYCKDELYGWYQRPSKL
notes: approx 54 kDa

Legend:
[1] = substrate: NC(=O)c1ccc[n+]([C@@H]2O[C@H](COP(=O)(O)OP(=O)(O)OC[C@H]3O[C@@H](n4cnc5c(N)ncnc54)[C@H](O)[C@@H]3O)[C@@H](O)[C@H]2O)c1; assay: spectrophotometric aldehyde dehydrogenase assay (NADH formation); type: biochemical, Leymus chinensis; conditions: 50 mM HEPES-KOH pH 8.0, 200 μM betaine aldehyde
Text: (§1) spectrophotometric aldehyde dehydrogenase assay (NADH formation) on LcBADH2

[2] = substrate: C[N+](C)(C)CCC=O; assay: as above; type: biochemical, Leymus chinensis; conditions: 50 mM HEPES-KOH pH 8.0, 500 μM NAD+
Text: as §1

[3] = substrate: C[N+](C)(C)CCCC=O; assay: as above; type: biochemical, Leymus chinensis; conditions: 50 mM HEPES-KOH pH 8.0, 500 μM NAD+
Text: as §1

[4] = substrate: NCCC=O; assay: as above; type: biochemical, Leymus chinensis; conditions: 50 mM HEPES-KOH pH 8.0, 500 μM NAD+
Text: as §1

[5] = substrate: NCCCC=O; assay: as above; type: biochemical, Leymus chinensis; conditions: 50 mM HEPES-KOH pH 8.0, 500 μM NAD+
Text: as §1

[6] = substrate: NC(=O)c1ccc[n+]([C@@H]2O[C@H](COP(=O)(O)OP(=O)(O)OC[C@H]3O[C@@H](n4cnc5c(N)ncnc54)[C@H](OP(=O)(O)O)[C@@H]3O)[C@@H](O)[C@H]2O)c1; assay: as above; type: biochemical, Leymus chinensis; conditions: 50 mM HEPES-KOH pH 8.0, 200 μM betaine aldehyde
[7] = substrate: C[N+](C)(C)CC=O; assay: purified protein; conditions: 50 mM HEPES-KOH pH 8.0, 500 μM NAD+
[8] = substrate: NC(=O)c1ccc[n+]([C@@H]2O[C@H](COP(=O)(O)OP(=O)(O)OC[C@H]3O[C@@H](n4cnc5c(N)ncnc54)[C@H](O)[C@@H]3O)[C@@H](O)[C@H]2O)c1; assay: spectrophotometric aldehyde dehydrogenase assay (NADH formation); type: biochemical, Leymus chinensis; conditions: 50 mM HEPES-KOH pH 8.0, 5 mM betaine aldehyde
Text: (§2) spectrophotometric aldehyde dehydrogenase assay (NADH formation) on LcBADH1

[9] = substrate: C[N+](C)(C)CCC=O; assay: as above; type: biochemical, Leymus chinensis; conditions: 50 mM HEPES-KOH pH 8.0, 500 μM NAD+; remark: listed apart in the source
Text: as §2

[10] = substrate: C[N+](C)(C)CCCC=O; assay: as above; type: biochemical, Leymus chinensis; conditions: 50 mM HEPES-KOH pH 8.0, 500 μM NAD+; remark: listed apart in the source
Text: as §2

[11] = substrate: NCCC=O; assay: as above; type: biochemical, Leymus chinensis; conditions: 50 mM HEPES-KOH pH 8.0, 500 μM NAD+; remark: listed apart in the source
Text: as §2

[12] = substrate: NCCCC=O; assay: as above; type: biochemical, Leymus chinensis; conditions: 50 mM HEPES-KOH pH 8.0, 500 μM NAD+; remark: listed apart in the source
Text: as §2

Row | Protein | Km [1] [µM] | Vmax [1] [µmol/min/mg] | Km [2] [µM] | Vmax [2] [µmol/min/mg] | Km [3] [µM] | Vmax [3] [µmol/min/mg] | Km [4] [µM] | Vmax [4] [µmol/min/mg] | Km [5] [µM] | Vmax [5] [µmol/min/mg] | Km [6] [µM] | Km [7] [µM] | Vmax [7] [µmol/min/mg] | Km [8] [µM] | Km [9] [µM] | Km [10] [µM] | Km [11] [µM] | Km [12] [µM]
1 | B1 | 7.66 ± 0.60 | 1.36 | 91.4 ± 9.60 | 1.01 | 22.1 ± 1.50 | 1.33 | 4.53 ± 0.81 | 2.16 | 1.96 ± 0.30 | 1.29 | 3680 ± 725 | 109 ± 10.0 | 1.59 |  |  |  |  | 
2 | B2 |  |  |  |  |  |  |  |  |  |  |  | 27300 ± 7000 |  | 15.6 ± 5.70 | 762 ± 175 | 56.5 ± 17.0 | 27.4 ± 6.30 | 48.1 ± 12.6

Reference: article PMC4431990, “Functional and expression analyses of two kinds of betaine aldehyde dehydrogenases in a glycinebetaine-hyperaccumulating graminaceous halophyte, Leymus chinensis” (SpringerPlus, 2015)
